# Publication PMC2866327, “Designed Inhibitors of Insulin-Degrading Enzyme Regulate the Catabolism and Activity of Insulin” (PLoS ONE, 2010)
# Like-named read-outs stand apart in the source and are kept apart here. Square brackets hold non-standard residues; d marks the D form. Ends that are not written are not given here. 1Nal = N[C@@H](Cc1cccc2ccccc12)C(=O)O; diphenylalanine = not defined here
# How the values were obtained:
# Details in all cases: modification not given
# [1] = molecular target: T1, insulin-degrading enzyme (recombinant human IDE) (human), P14735
# [2] = molecular target: T1, insulin-degrading enzyme (recombinant …); remark: listed apart in the source
# [3] = molecular target: T1, insulin-degrading enzyme (recombinant …); remark: listed apart in the source
# [4] = molecular target: T1, insulin-degrading enzyme (recombinant …); remark: listed apart in the source
# [5] = molecular target: T1, insulin-degrading enzyme (recombinant …); remark: listed apart in the source
# [6] = molecular target: T1, insulin-degrading enzyme (recombinant …); remark: listed apart in the source
binder,measurement,setting,value
[1Nal]-Arg-Tyr [1-naphthylalanine],Ki,[1],0.7 µM
FRY [3-fluorophenylalanine],Ki,[2],7 µM
[2‑benzothiophenylalanine]-Arg-Tyr [2-benzothiophenylalanine],Ki,[3],1.1 µM
FRY [4-(tert-butyl)-phenylalanine],Ki,[4],16 µM
FRY [4-fluorophenylalanine],Ki,[5],7 µM
[diphenylalanine]-Arg-Tyr (reading uncertain) [diphenylalanine],Ki,[6],> 500 µM
